Read-outs that look alike come from different tables or passages of the source.
B1: CBD1017ch whole antibody (chimeric CT8 antibody) (antibody, V domains shown)
VH: EVQLQQSGPELVKPGASVKISCKASRYTFTDYNLHWVKLSHEKSLEWIGFIYPYNGGTGYNQKFKNKAKLTVDYSSSTAYMELRSLTSVDAAVYYCARDHRYNEGVSFDYWGQGTTLTVSS
VL: NIVLTQSPASLAVSLGQRATISCRASESVDGFGNSFMNWYQQKPGQSPKLLIYLASNLESGVPARFSGSGSRTDFTLTIDPVEADDAATYYCQQNNEDPYTFGGGTKLEIK
notes: Chimeric antibody comprising the variable regions of the donor antibody CT8; detected with anti-human Fc
B2: CBD1033 whole antibody, human IgG1 with Fc-silencing mutations L234A, L235A and P329A (CBD1033-hIgG1-LALAPA) (antibody, V domains shown)
VH: QVQLVQSGAEVKKPGASVKVSCKASRYTFTDYNLHWVRQAPGQGLEWMGFIYPYNGGTGYAQKFQGRVTMTVDTSTSTAYMELSSLRSEDTAVYYCARDHRYNEGVSFDYWGQGTTVTVSS
VL: DIQLTQSPSSLSASVGDRATITCRASESVDGFGNSFMNWYQQKPGKAPKLLIYLASNLESGVPSRFSGSGSGTDFTLTISSVQPEDFATYYCQQNNEDPYTFGQGTKLEIKR
notes: On tLNPs the antibody was SATA-modified or AJICAP-thiolated (CBD1033.29) and conjugated to the LNP; also called CBD1033.3; CBD1033 IgG1

Experiments:
[1] = target: T1, human CD8 on cells (CD8-overexpressing HEK293T cells, SupT1, HPB-ALL, human T cells, transfected HEK293 of … (human, UniProt P01732 22-235)); test: flow cytometry, Human Expanded T cells Donor 5, gated on live CD8 T cells (via CD3+CD4-)
T1 construct: whole, on cells; also called cell surface CD8
T1 sequence (P01732 22-235): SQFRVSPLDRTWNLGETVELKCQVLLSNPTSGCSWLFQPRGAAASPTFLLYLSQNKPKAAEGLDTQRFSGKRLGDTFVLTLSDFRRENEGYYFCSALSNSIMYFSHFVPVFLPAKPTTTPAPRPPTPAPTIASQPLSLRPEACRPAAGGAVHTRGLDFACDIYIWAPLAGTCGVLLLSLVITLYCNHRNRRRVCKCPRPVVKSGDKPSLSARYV
Procedure: (§1) To obtain the results shown in FIG. 8A and FIG. 8B, 5×10⁴ expanded primary T cells (human, cynomolgus macaque or rhesus monkey) were thawed and transferred to a V bottom 96-well culture plate (Corning). Cells were washed twice with Cell Staining buffer (#420201, Biolegend). Each anti-CD8α antibody was diluted in four-fold antibody titration series from 60 μg/mL to 0.057 ng/mL into Cell Staining buffer. Cells were stained with each diluted antibody solution for 30 minutes on ice. Cells were then washed three times with Cell Staining buffer and primary antibody binding was detected by staining with anti-human Fc BV421 conjugate antibody (#410704, Biolegend) at 1:200 dilution for 30 minutes on ice. […] Flow cytometry data was analyzed by Flowjo 10 (Becton, Dickinson & Company) to measure the geometric median fluorescence intensity (gMFI) of the on-cell binding from each antibody. The gMFI values were normalized with the gMFI measured in the sample stained with only the secondary detection antibody and plotted against the concentration of the added antibodies. The binding curves were constructed using Graphpad Prism software, and EC₅₀ values were determined by non-linear curve fitting.

[2] = target: T1, human CD8 on cells (CD8-overexpressing …); test: as above; remark: listed apart in the source
Procedure: as §1

[3] = target: T1, human CD8 on cells (CD8-overexpressing …); test: flow cytometry, Human Expanded T cells Donor 6, gated on live CD8 T cells (via CD3+CD4-)
Procedure: as §1

[4] = target: T2, rhesus macaque CD8 on expanded primary T cells (rhesus macaque); test: flow cytometry, Rhesus Expanded T cells Donor 8, gated on CD4- T cells, anti-human Fc BV421
T2 construct: also called CD4- CD8+ rhesus T cells
Procedure: Binding was measured by fluorescence from the BV421 fluorophore-conjugated anti-human Fc secondary antibody that recognize the binders. The gMFI was normalized to the gMFI of the secondary antibody in the absence of the anti-CD8α binders.
as §1, with “Cells were stained with each diluted antibody solution for 30 minutes on ice.” left out

[5] = target: T1, human CD8 on cells (CD8-overexpressing …); test: flow cytometry, Human Expanded T cells Donor 6, gated on live CD8 T cells (via CD3+CD4-); remark: listed apart in the source
Procedure: as §1

[6] = target: T3, human CD8αα homodimer, recombinant protein (Acro Biosystems) (human, UniProt P01732 22-182); test: BLI binding kinetic analysis, whole antibody, sample stressed at pH 8.5, 40 °C, 7 days
T3 construct: also called CD8αα antigen; biotinylated CD8α recombinant protein (CDA-H82E3)
T3 sequence (P01732 22-182 limits assumed): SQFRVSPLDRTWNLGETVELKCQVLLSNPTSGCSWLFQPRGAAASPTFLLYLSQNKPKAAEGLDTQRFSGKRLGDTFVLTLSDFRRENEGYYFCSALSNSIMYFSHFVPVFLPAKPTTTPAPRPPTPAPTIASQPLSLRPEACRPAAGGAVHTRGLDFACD

[7] = target: T3, human CD8αα homodimer, recombinant …; test: BLI steady state analysis, whole antibody, sample stressed at pH 8.5, 40 °C, 7 days
Procedure: (§2) To assess affinity of whole antibodies, steady state analysis was used as the bivalent nature of both whole antibody and CD8α complicates kinetic analysis. 50 nM CD8α-His (that is, CD8α with a C-terminal oligohistidine tag; Acro) was immobilized on Ni-NTA sensor probes. Binding was analyzed with a three-fold antibody dilutions series: 60 nM, 20 nM, 6.67 nM, 2.22 nM, 0.74 nM, and 0.25 nM. The antigen-loaded sensors were incubated in the diluted solutions to capture the whole IgG antibody for 300 s to record the association phase. Sensors were incubated in the kinetic buffer for 900 s to record the dissociation phase. The spin speed was 1000 rpm for all steps except the antigen loading step which was 400 rpm to control density of the antigen. The temperature of the performed assays was at 30° C. during the association and dissociation phases. The sensor data were baseline subtracted and further analyzed in GatorOne software (version 2.10) to determine the equilibrium dissociation constants (KD) of the antibodies by fitting the signals of the steady states to the 1:1 binding model.

[8] = target: T4, cynomolgus macaque CD8 on expanded primary T cells (cynomolgus macaque); test: flow cytometry, Cyno Expanded T cells Donor 10, gated on live CD8 T cells (via CD3+CD4-)
T4 construct: also called CD4- CD8+ cynomolgus macaque T cells
Procedure: as §1

[9] = target: T3, human CD8αα homodimer, recombinant …; test: BLI steady state, whole hIgG1-LALAPA antibody on CD8α-His (Ni-NTA sensor), 30 °C
Procedure: as §2

[10] = target: T4, cynomolgus macaque CD8 on expanded …; test: flow cytometry, Cyno Expanded T cells Donor 10, gated on live CD8 T cells (via CD3+CD4-); remark: listed apart in the source
Procedure: as §1

[11] = target: T3, human CD8αα homodimer, recombinant …; test: BLI steady state analysis, whole antibody, sample stressed at pH 8.5, 40 °C, 3 days
Procedure: as §2

Binder | EC50 [1] [µg/mL] | EC50 [2] [pM] | EC50 [3] [µg/mL] | EC50 (read off the curve) [4] [µg/mL] | EC50 [5] [pM] | Kd [6] [pM] | koff [6] [s⁻¹] | kon [6] [M⁻¹ s⁻¹] | Kd [7] [pM] | EC50 [8] [µg/mL] | Kd [9] [pM] | EC50 [10] [pM] | Kd [11] [pM]
B1 | 0.051 | 349 | 0.052 | ~0.05 | 356 | 550 | 0.000795 | 1.45e+06 | 530 | 0.057 | 580 | 390 | –
B2 | 0.094 | 644 | 0.112 | ~0.1 | 767 | 2190 | 0.00309 | 1.41e+06 | 2120 | 0.169 | 2270 | 1160 | 1710

Source: US20250195685A1 (CAPSTAN THERAPEUTICS, published 2025)
